Assay [1] deals with T1, complement receptor-2 (CR2) on the surface of Raji cells (UniProt P20023 21-1033, limits assumed).
T1 construct: whole, on cells; also called CD21; complement receptor type 2
T1 sequence (looked up): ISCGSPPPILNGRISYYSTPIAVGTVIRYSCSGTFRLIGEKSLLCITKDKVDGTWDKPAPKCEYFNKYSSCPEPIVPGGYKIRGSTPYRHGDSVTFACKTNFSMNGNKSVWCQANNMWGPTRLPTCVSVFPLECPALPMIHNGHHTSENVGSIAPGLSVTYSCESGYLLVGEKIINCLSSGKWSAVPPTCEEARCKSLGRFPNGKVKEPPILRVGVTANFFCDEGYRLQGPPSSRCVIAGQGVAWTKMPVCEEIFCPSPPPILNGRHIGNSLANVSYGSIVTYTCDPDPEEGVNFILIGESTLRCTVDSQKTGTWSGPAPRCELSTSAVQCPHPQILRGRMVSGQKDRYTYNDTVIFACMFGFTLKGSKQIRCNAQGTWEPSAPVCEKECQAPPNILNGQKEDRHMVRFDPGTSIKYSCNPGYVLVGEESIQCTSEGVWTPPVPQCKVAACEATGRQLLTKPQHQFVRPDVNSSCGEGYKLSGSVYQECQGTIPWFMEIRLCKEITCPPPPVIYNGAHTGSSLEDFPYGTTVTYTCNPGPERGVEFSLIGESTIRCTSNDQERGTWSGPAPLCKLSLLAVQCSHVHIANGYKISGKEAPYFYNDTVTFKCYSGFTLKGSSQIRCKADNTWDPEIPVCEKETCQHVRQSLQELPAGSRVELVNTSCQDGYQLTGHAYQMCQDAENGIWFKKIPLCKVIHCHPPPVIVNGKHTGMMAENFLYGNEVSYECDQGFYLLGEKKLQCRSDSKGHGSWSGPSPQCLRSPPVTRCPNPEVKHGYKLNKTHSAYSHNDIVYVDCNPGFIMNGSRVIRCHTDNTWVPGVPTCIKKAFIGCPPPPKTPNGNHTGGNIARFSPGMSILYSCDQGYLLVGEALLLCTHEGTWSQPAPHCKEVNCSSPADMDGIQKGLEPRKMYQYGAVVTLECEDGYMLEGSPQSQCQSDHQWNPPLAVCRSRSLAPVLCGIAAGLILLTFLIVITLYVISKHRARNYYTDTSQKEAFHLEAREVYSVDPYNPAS
The assay can be described thus: competitive binding on Raji cells against 1 nM 125I-HEL-C3d, 1 h at 4 C, cell-pellet radioactivity. The procedure: The cells are then centrifuged through a dibutyl-diiso-octyl-phthalate cushion, and the amount of radioactivity associated with the pellet determined.
The binding was performed as described in General Methods Section (xvii) (a).

The next assay has as its target T2, co-ligated CR2.IgG1.
T2 construct: also called CR2; IgGl
Put plainly: competitive ELISA: plate-bound C3d, 125 pM CR2.IgG1, soluble C3d titrated, HRP anti-mouse IgG1 detection. Here is the method: C3d is used to coat 96-well microtitre plates at 5 µg/ml in O. 1M NaHCO_3 by incubating overnight at 4° C. The plates are then blocked in 1% BSA 0.1% Tween-20 in PBS for 1 h at room temperature subsequently they are incubated with either 25 µl/well of C3d or from the C3d containing molecule under test in a dose response manner. To the wells is added 25 µl/well of a sub-saturating concentration of co-ligated CR2. […] The plates are then washed three times with PBS containing 0.1% (v/v) Tween-20. The amount of CR2 bound to the immobilised C3d is detected using a 1:3000 dilution of HRP-labeled goat anti-mouse-IgGl-antibody in PBS containing 0.1% (v/v)Tween-20 and incubated for 1 h at room temperature the wells were then washed as described above. The presence of HRP-antibody is detected using the TMB Peroxidase EIA Substrate Kit according to the manufacturer's instructions (Bio-Rad, UK).
The ELISA was performed as described in General Methods Section (xvii) (b). The monomer gave a $I50$ of 2 µM for the baculovirus/Sf9 material. A similar figure was obtained for the COS cell produced C3d.
Background: ELISA stands for enzyme-linked immunosorbent assay.

B1: C3d monomer produced in baculovirus/Sf9 cells (murine C3d with C-terminal Glu-Glu-Phe tag) (ligand)
chain: not shown
notes: The end residue 330 was counted from the printed appendix (33 rows of 10 residues); Measured mass 34279 Da; also called baculovirus/Sf9 C3d; C3d1
As to B1, the values for the IC50 (in assay [1]; in the assay with co-ligated CR2.IgG1) were 2.5 µM and 2 µM, respectively.

B2: C3d expressed in COS cells (ligand)
chain: not shown
notes: domain: C3d; Comparator material; also called COS cell produced C3d
Take B2: the IC50 – broadly, the concentration at which inhibition is half-maximal – in assay [1] was determined as 2.5 µM.

Source of the values: patent publication US6770631 (ADPROTECH, dated 2004).
